Assay results: publication PMC6629726, “Domain swapping of complementarity-determining region in nanobodies produced by Pichia pastoris” (AMB Express, 2019)

Experiments:
[1] = molecular target: T1, Recombinant CD4 (cluster of differentiation 4) (Homo sapiens (species ), UniProt P01730); experiment: SPR; BIACORE T-200; CD4 amine-coupled on CM5 (9695.5 RU); nanobodies 0.4 μM flowed over, 25 °C, HBS-EP pH 7.4, contact 180 s, 30 μL/min; binding level relative to CD4 N = 1; N = 3; settings: both partners purified
T1 construct: CD4, recombinant, bought from R&D Systems; No catalogue number is printed; a bought soluble CD4 is probably the extracellular domain, possibly tagged (surmise); source: bought: R&D Systems

[2] = molecular target: T2, Recombinant GFP (green fluorescent protein) (UniProt P42212 = GFP); experiment: SPR; BIACORE T-200; GFP amine-coupled on CM5 (1189.8 RU); nanobodies 0.4 μM flowed over, 25 °C, HBS-EP pH 7.4, contact 180 s, 30 μL/min; binding level relative to GFP N = 1; N = 3; settings: both partners purified
T2 construct: green fluorescent protein, recombinant, bought from ProSpec; No catalogue number is printed; source: bought: ProSpec

relative binding response (CD4N to CD4 = 1) [1] | binding result [2] | Binder
0.091 |  | chimeric nanobody with CDR2 of GFP-nanobody replaced with that of CD4-nanobody (VHH, everything before CDR2 (scaffold, CDR1), as in the VHH of m1; CDR2, as in the VHH of m2; everything after CDR2 (scaffold, CDR3), as in the VHH of m1; also called cCD4 CDR2; not shown: long peptide tag containing two FLAG-tags, C-terminal, kept) VHH: QVQLVESGGALVQPGGSLRLSCAASGFPVNRYSMRWYRQAPGKEREWVAAVRWSSTGIYYTQYADSVKGRFTISRDDARNTVYLQMNSLKPEDTAVYYCNVNVGFEYWGQGTQVTVSS
0.096 |  | chimeric nanobody in which all CDRs of GFP-nanobody had been replaced with those of CD4-nanobody (VHH, scaffold before CDR1, as in the VHH of m1; CDR1, as in the VHH of m2; scaffold between CDR1 and CDR2, as in the VHH of m1; CDR2, as in the VHH of m2; scaffold between CDR2 and CDR3, as in the VHH of m1; CDR3, as in the VHH of m2; scaffold after CDR3, as in the VHH of m1; not shown: long peptide tag containing two FLAG-tags, C-terminal, kept) VHH: QVQLVESGGALVQPGGSLRLSCAASGRTFNVMRWYRQAPGKEREWVAAVRWSSTGIYYTQYADSVKGRFTISRDDARNTVYLQMNSLKPEDTAVYYCAADTYNSNPARWDGYDFRGQGTQVTVSS
0.1 | no binding (tested: 0.4 μM) | chimeric nanobody with CDR3 of GFP-nanobody replaced with that of CD4-nanobody (VHH, everything before CDR3 (scaffold, CDR1, CDR2), as in the VHH of m1; CDR3, as in the VHH of m2; scaffold after CDR3, as in the VHH of m1; also called cCD4 CDR3; not shown: long peptide tag containing two FLAG-tags, C-terminal, kept) VHH: QVQLVESGGALVQPGGSLRLSCAASGFPVNRYSMRWYRQAPGKEREWVAGMSSAGDRSSYEDSVKGRFTISRDDARNTVYLQMNSLKPEDTAVYYCAADTYNSNPARWDGYDFRGQGTQVTVSS
